Consider 1 molecule from patent publication US20120207770A1 (NANYANG TECHNOLOGICAL UNIVERSITY, published 2012).

A word on the Kd: it is a measure of binding affinity in units of concentration.

For assay [1], the target named is T1, human integrin β1 (enriched membrane protein extract of transfected HEK293T cells) (human, UniProt P05556 21-798, limits assumed).
T1 construct: Membrane extract enriched on a sucrose step gradient before SPR; also called integrins B1
As to the kind of experiment: SPR, integrin over immobilized ANGPTL4 on a GLC chip, global fit to Langmuir 1:1 model. As for the experimental part: Immunoprecipitates were probed with anti-Src for normalization. Activated Src, Na⁺/H⁻ exchanger 1 and catalase were assessed using cognate antibodies. Representative pictures from three experiments. (h) Intracellular ROS of A-5RT3CTRL and A-5RT3ANGPTL4 evaluated by 5-(and 6-)-chloromethyl-2′,7′-dichlorodihydro-fluorescein diacetate acetyl ester. Data are normalized to total protein content. (i) Activities of caspases in A-5RT3ANGPTL4 after 2 h suspension. Values (mean±S.D.) represent a fold change above A-5RT3CTRL (n=3). *:p<0.05, **:p<0.01.
Purifided fibrinogen-like fragment of ANGPTL4 (cANGPTL4) was immobilized onto ProteOn GLC chip by amine coupling as recommended by the manufacturer (Bio-Rad). Different concentrations of integrins were introduced into the GLC chip at a flow rate of 25 μl/min for […] with running buffer (50 mM Tris, pH8.0, 100 mMNaC1). […] The affinity constants of the 6 mAbs for ANGPTL4 were determined using the one shot Kinetics protocol as described by manufacturer (Bio-Rad).
Purified fibrinogen-like fragment of ANGPTL4 (cANGPTL4) was immobilized onto ProteOn GLC chip by amine coupling, as recommended by the manufacturer (Bio-Rad). […] The affinity constants of the 6 mAbs for ANGPTL4 were determined using the One-Shot Kinetics protocol as described by manufacturer (Bio-Rad).
A general note: In SPR one partner is held on a chip, and binding of the other changes the refractive index at the surface.

Assay [2] has as its target T2, human integrin β5 (enriched membrane protein extract of transfected HEK293T cells) (human, UniProt P18084 24-799, limits assumed).
T2 construct: Membrane extract enriched on a sucrose step gradient before SPR; also called integrins B5; integrin 5
As to the kind of experiment: SPR, integrin over immobilized ANGPTL4, global fit to Langmuir 1:1 model. As for the experimental part:
Purifided fibrinogen-like fragment of ANGPTL4 (cANGPTL4) was immobilized onto ProteOn GLC chip by amine coupling as recommended by the manufacturer (Bio-Rad). Different concentrations of integrins were introduced into the GLC chip at a flow rate of 25 μl/min for […] with running buffer (50 mM Tris, pH8.0, 100 mMNaC1). […] Global fitting of the data to a Languir 1:1 model was used to determine the association (Kₒₙ) dissociation (Koff) and affinity constant (KD) using scrubber2 (Biologic Software Pty Ltd). […] The affinity constants of the 6 mAbs for ANGPTL4 were determined using the one shot Kinetics protocol as described by manufacturer (Bio-Rad).
Purified fibrinogen-like fragment of ANGPTL4 (cANGPTL4) was immobilized onto ProteOn GLC chip by amine coupling, as recommended by the manufacturer (Bio-Rad). Different concentrations of integrins were introduced into the GLC chip at a flow rate of 25 μl/min for […] with running buffer (50 mM Tris, pH 8.0, 100 mM NaCl). […] Global fitting of the data to a Langmuir 1:1 model was used to determine the association (kₒₙ), dissociation (koff) and affinity constant (KD) using Scrubber2 (BioLogic Software Pte Ltd). […] The affinity constants of the 6 mAbs for ANGPTL4 were determined using the One-Shot Kinetics protocol as described by manufacturer (Bio-Rad).

T1 sequence (P05556 21-798 limits assumed): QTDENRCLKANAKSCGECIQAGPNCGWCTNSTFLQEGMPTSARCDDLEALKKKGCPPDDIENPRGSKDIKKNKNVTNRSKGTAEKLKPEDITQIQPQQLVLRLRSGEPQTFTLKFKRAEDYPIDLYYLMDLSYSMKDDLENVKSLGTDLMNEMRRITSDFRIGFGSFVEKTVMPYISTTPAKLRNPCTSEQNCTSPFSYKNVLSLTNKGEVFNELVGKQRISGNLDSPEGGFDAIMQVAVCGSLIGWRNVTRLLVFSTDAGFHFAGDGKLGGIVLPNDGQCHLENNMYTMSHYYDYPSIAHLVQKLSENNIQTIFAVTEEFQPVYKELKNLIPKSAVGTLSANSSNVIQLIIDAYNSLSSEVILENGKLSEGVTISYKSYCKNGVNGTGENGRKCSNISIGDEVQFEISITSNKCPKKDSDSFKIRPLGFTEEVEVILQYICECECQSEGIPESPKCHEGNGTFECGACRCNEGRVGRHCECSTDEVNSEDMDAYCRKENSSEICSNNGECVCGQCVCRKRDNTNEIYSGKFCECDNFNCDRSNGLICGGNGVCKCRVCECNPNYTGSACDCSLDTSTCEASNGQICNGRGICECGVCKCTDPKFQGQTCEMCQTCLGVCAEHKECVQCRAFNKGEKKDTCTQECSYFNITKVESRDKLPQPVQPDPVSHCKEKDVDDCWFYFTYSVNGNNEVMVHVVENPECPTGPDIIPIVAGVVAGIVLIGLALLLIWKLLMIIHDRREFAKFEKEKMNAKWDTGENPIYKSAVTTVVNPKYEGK
T2 sequence (P18084 24-799 limits assumed): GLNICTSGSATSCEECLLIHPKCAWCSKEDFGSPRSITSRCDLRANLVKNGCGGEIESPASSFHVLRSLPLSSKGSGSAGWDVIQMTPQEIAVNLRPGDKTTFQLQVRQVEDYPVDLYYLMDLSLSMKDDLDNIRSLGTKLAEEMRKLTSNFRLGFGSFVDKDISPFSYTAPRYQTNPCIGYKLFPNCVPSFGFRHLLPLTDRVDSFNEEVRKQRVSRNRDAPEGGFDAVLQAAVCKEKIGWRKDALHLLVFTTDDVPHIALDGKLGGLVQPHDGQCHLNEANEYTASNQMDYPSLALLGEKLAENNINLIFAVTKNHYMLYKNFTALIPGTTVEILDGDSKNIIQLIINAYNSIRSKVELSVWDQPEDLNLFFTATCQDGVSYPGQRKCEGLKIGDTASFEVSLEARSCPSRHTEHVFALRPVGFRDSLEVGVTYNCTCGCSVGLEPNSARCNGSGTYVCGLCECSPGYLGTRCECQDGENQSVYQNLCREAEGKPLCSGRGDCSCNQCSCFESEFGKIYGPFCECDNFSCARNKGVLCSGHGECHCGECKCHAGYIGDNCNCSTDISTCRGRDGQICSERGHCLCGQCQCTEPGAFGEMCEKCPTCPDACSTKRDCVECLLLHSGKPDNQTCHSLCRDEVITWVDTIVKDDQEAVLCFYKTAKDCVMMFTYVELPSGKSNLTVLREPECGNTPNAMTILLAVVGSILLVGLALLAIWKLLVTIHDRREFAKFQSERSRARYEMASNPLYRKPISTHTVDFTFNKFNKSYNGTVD

B1: recombinant C-terminal fibrinogen-like fragment of human ANGPTL4 (cANGPTL4, a.a. 186-406) (ligand, UniProt Q9BY76 186-406, looked up)
chain: RDCQELFQVGERQSGLFEIQPQGSPPFLVNCKMTSDGGWTVIQRRHDGSVDFNRPWEAYKAGFGDPHGEFWLGLEKVHSITGDRNSRLAVQLRDWDGNAELLQFSVHLGGEDTAYSLQLTAPVAGQLGATTVPPSGLSVPFSTWDQDHDLRRDKNCAKSLSGGWWFGTCSHSNLNGQYFRSIPQQRQKLKKGIFWKTWRGRYYPLQATTMLIQPMAAEAAS
notes: range 186-406; also called immobilized-ANGPTL4; fibrinogen-like fragment of ANGPTL4; not shown: N-terminal histidine tag
As to B1, the Kd in assay [1] and in assay [2] was ~100 nM in each case.
